Earlier results as cited in paper PMC7510350.
pKd: −log10 of the molar value.

Experiments:
[1] = target: IscA (Escherichia coli) (UniProt P0AAC8)
[2] = target: SufA (Escherichia coli) (UniProt P77667)
Chain of UniProt P77667 (P77667 whole entry): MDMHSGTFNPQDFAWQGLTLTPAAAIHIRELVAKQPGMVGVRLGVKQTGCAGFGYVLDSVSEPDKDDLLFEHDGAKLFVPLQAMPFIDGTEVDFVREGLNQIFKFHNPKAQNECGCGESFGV

Chain of UniProt P0AAC8 (P0AAC8 whole entry): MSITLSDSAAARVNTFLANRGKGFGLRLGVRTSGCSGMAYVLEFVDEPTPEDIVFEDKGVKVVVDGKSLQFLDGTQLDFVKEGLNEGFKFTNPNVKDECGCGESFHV

pKd [1]: 4.40 | pKd [2]: 3.04
Substance: ErpA (from UniProt P0ACC3)
